Like-named read-outs stand apart in the source and are kept apart here.
Assays:
Assay in all cases: FACS binding to EL4 cells
[1] = target: T1, human BTLA, wild-type, on cells (human, UniProt Q7Z6A9 31-289)
human CD160 on cells [2] = target: T2, human CD160 on cells (human, UniProt O95971 25-159)
T2 chain: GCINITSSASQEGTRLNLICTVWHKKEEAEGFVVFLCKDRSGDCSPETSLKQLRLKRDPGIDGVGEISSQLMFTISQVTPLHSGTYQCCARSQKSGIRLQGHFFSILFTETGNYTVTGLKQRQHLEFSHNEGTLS

[3] = target: T1, human BTLA, wild-type, on cells; remark: listed apart in the source
human CD160 on cells [4] = target: T2, human CD160 on cells

B1: human HVEM Fc (Fc fusion)
chain: LPSCKEDEYPVGSECCPKCSPGYRVKEACGELTGTVCEPCPPGTYIAHLNGLSKCLQCQMCDPAMGLRASRNCSRTENAVCGCSPGHFCIVQDGDHCAACRAYATSSPGQRVQKGGTESQDTLCQNCPPGTFSPNGTLEECQHQTKCSWLVTKAGAGTSSSHWV
For B1, the EC50 [1] was 8.7 µg/mL, the EC50 (human CD160 on cells [2]) was 5.1 µg/mL and the EC50 [3] was 8.7 µg/mL. For the same binder, the EC50 (human CD160 on cells [4]) was 5.1 µg/mL.

Source: patent US20210122788A1 (published 2021)
